From patent publication US20150023989A1, “NEW ANTIBODY DRUG CONJUGATES (ADCS) AND THE USE THEREOF” (SEATTLE GENETICS, INC., priority 2011, published 2015) come the findings set out here.

This assay concerns the target FGFR2 on the cell surface of human tumour cell lines (human), P21802. The experiment in a line: cell-based or functional assay.

B1: Example 17 (immunoconjugate of GAL-FR22-mIgG2a, coupled to lysine side chains) (antibody)
light: DIQMTQSPSSLSASLGGRVTITCKASQDIKNYIAWYQHKPGKSPRLLIHYTSTLQPGVPSRFSGSGSGRDYSFSISNLEPEDIATYYCLQYDDLYMFGGGTKLDIKRTDAAPTVSIFPPSSEQLTSGGASVVCFLNNFYPKDINVKWKIDGSERQNGVLNSWTDQDSKDSTYSMSSTLTLTKDEYERHNSYTCEATHKTSTSPIVKSFNRNEC
heavy: QVQLKQSGPGLVQPSQSLSITCTVSGFSLTSFGVHWVRQSPGKGLEWLGVIWSGGSTDYNADFRSRLSISKDNSKSQIFFKMNSLQPDDTAIYYCANFYYGYDDYVMDYWGQGTSVTVSSAKTTAPSVYPLAPVCGDTTGSSVTLGCLVKGYFPEPVTLTWNSGSLSSGVHTFPAVLQSDLYTLSSSVTVTSSTWPSQSITCNVAHPASSTKVDKKIEPRGPTIKPCPPCKCPAPNLLGGPSVFIFPPKIKDVLMISLSPIVTCVVVDVSEDDPDVQISWFVNNVEVHTAQTQTHREDYNSTLRVVSALPIQHQDWMSGKEFKCKVNNKDLPAPIERTISKPKGSVRAPQVYVLPPPEEEMTKKQVTLTCMVTDFMPEDIYVEWTNNGKTELNYKNTEPVLDSDGSYFMYSKLRVEKKNWVERNSYSCSVVHEGLHNHHTTKSFSRTPGK
modifications: here or on the partner: auristatin linker-toxophore on side chain NH of lysine residues, positions not stated (drug/mAb ratio 8.1 for the antibody)
B1 displayed an MFM-223, IC50, 72 hr (growth inhibition) of 0.278 nM and an SNU-16, IC50, 72 hr (growth inhibition) of 0.0616 nM.

B2: Example 16 (immunoconjugate of GAL-FR21-mIgG1, coupled to lysine side chains) (antibody)
light: NIVMTQSPKSMSMSVGDRVSITCKASQGVSNDVAWYQKKPGQSPKLLIYSASYRYTGVPDRFTGSGSGTDFTFTISNVQAEDLAVYYCQQHSTTPYTFGGGTKLEIKRTDAAPTVSIFPPSSEQLTSGGASVVCFLNNFYPKDINVKWKIDGSERQNGVLNSWTDQDSKDSTYSMSSTLTLTKDEYERHNSYTCEATHKTSTSPIVKSFNRNEC
heavy: QVQLQQPGAEVVKPGASVKMSCKASGYIFTTYNVHWVKQTPGQGLEWIGSIYPDNGDTSYNQNFKGKATLTADKSSSTAYIQLSSLTSEDSAVYYCARGDFAYWGQGTLVTVSSAKTTPPSVYPLAPGSAAQTNSMVTLGCLVKGYFPEPVTVTWNSGSLSSGVHTFPAVLQSDLYTLSSSVTVPSSTWPSETVTCNVAHPASSTKVDKKIVPRDCGCKPCICTVPEVSSVFIFPPKPKDVLTITLTPKVTCVVVDISKDDPEVQFSWFVDDVEVHTAQTQPREEQFNSTFRSVSELPIMHQDWLNGKEFKCRVNSAAFPAPIEKTISKTKGRPKAPQVYTIPPPKEQMAKDKVSLTCMITDFFPEDITVEWQWNGQPAENYKNTQPIMDTDGSYFVYSKLNVQKSNWEAGNTFTCSVLHEGLHNHHTEKSLSHSPGK
modifications: here or on the partner: auristatin linker-toxophore on side chain NH of lysine residues, positions not stated (drug/mAb ratio 8.7 for the antibody)
B2: the MFM-223, IC50, 72 hr (growth inhibition) is 0.0788 nM and the SNU-16, IC50, 72 hr (growth inhibition) is under 0.03 nM.
